The record followed here is patent publication US20060241051A1 (Takeda / Millennium, published 2006).

Test [1] concerns the target human OT7T175 (metastin receptor) (human) (UniProt Q969F8). As to the kind of experiment: FMAT competition with Cy-5-labeled metastin (40-54), hOT7T175-expressed CHO cells.
Test [2] concerns the target T1, human OT7T175 (metastin receptor) (human, UniProt Q969F8 1-398). As to the kind of experiment: cell-based or functional assay.
Test [3] has as its target T1, human OT7T175 (metastin receptor). Put plainly: FMAT competition with Cy-5-labeled metastin (40-54), hOT7T175-expressed CHO cells.
The target is the same in test [4]. As to the kind of experiment: cell-based or functional assay. This is another data set of the same source.
Test [5] has the same target. Put plainly: cell-based or functional assay. This is another data set of the same source.
Test [6] shares this target. Put plainly: cell-based or functional assay. The source holds these as a separate data set.

Where two headings read alike, the source gives them in different places. Square brackets hold non-standard residues; d marks the D form. Ends that are not written are not given here. * marks the point of attachment. Phe(3,4-Cl2) = N[C@@H](Cc1ccc(Cl)c(Cl)c1)C(=O)O; Propanoyl(3-(3-pyridyl)) = O=C(CCc1cccnc1)*; Phe(4-NH2) = Nc1ccc(C[C@H](N)C(=O)O)cc1; Arg(Me) = CNC(=N)NCCC[C@H](N)C(=O)O; Bta = N[C@@H](Cc1csc2ccccc12)C(=O)O; 4Pal = N[C@@H](Cc1ccncc1)C(=O)O; d4Pal = N[C@H](Cc1ccncc1)C(=O)O; Cha = N[C@@H](CC1CCCCC1)C(=O)O; Abu = CC[C@H](N)C(=O)O; azaGly = NNC(=O)O

T1 sequence (Q969F8 whole entry L364H): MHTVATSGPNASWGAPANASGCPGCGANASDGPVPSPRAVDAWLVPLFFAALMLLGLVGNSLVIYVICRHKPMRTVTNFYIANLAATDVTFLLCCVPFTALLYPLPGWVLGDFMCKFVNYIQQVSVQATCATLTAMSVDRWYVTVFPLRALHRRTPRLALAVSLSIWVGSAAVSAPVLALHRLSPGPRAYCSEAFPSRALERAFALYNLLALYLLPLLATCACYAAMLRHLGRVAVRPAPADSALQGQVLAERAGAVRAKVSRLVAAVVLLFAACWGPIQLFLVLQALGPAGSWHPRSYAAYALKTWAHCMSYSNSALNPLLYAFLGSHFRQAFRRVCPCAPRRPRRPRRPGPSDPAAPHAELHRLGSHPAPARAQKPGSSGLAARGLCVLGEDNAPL
Chain of human OT7T175 (metastin receptor) (human) (Q969F8 whole entry L364H): as above

The molecule “Compound No. 238: [D-Tyr1,D-Asn2,D-Trp3,AzaGly7,Arg(Me)9]MS10 (peptide)” returned an IC50 in test [1] of 49 nM.

B1: Compound No. 189: [Ala(3-Bzt)10]MS10 (peptide)
peptide: YNWNSFGLR[Bta]-NH2
modifications: N-terminus assumed
SMILES: CC(C)C[C@H](NC(=O)CNC(=O)[C@H](Cc1ccccc1)NC(=O)[C@H](CO)NC(=O)[C@H](CC(N)=O)NC(=O)[C@H](Cc1c[nH]c2ccccc12)NC(=O)[C@H](CC(N)=O)NC(=O)[C@@H](N)Cc1ccc(O)cc1)C(=O)N[C@@H](CCCNC(=N)N)C(=O)N[C@@H](Cc1csc2ccccc12)C(N)=O
In the case of B1, the “intracellular Ca ion level-increasing activity (FLIPR)” value in test [2] is 10 specific activity to metastin (1-54). In addition, in test [3], the IC50 came to 230 nM.

B2: Compound No. 170: [D-Tyr1,Ser3,Arg(Me)9]MS10 (peptide)
peptide: [dY]NSNSFGL[Arg(Me)]F-NH2
modifications: N-terminus assumed
SMILES: CNC(=N)NCCC[C@H](NC(=O)[C@H](CC(C)C)NC(=O)CNC(=O)[C@H](Cc1ccccc1)NC(=O)[C@H](CO)NC(=O)[C@H](CC(N)=O)NC(=O)[C@H](CO)NC(=O)[C@H](CC(N)=O)NC(=O)[C@H](N)Cc1ccc(O)cc1)C(=O)N[C@@H](Cc1ccccc1)C(N)=O
As to B2, the “intracellular Ca ion level-increasing activity (FLIPR)” value in test [2] was 1 specific activity to metastin (1-54). For the same molecule, in test [3], the IC50 amounted to 260 nM.

B3: Compound No. 174: [D-Tyr1,Arg(Me)9,Trp10]MS10 (peptide)
peptide: [dY]NWNSFGL[Arg(Me)]W-NH2
modifications: N-terminus assumed
SMILES: CNC(=N)NCCC[C@H](NC(=O)[C@H](CC(C)C)NC(=O)CNC(=O)[C@H](Cc1ccccc1)NC(=O)[C@H](CO)NC(=O)[C@H](CC(N)=O)NC(=O)[C@H](Cc1c[nH]c2ccccc12)NC(=O)[C@H](CC(N)=O)NC(=O)[C@H](N)Cc1ccc(O)cc1)C(=O)N[C@@H](Cc1c[nH]c2ccccc12)C(N)=O
Regarding B3, the “intracellular Ca ion level-increasing activity (FLIPR)” value in test [2] was 10 specific activity to metastin (1-54). The same molecule came in with a half-maximal inhibitory concentration (IC50) in test [3] of 420 nM.

B4: Compound No. 187: [Abu8]MS10 (peptide)
peptide: YNWNSFG[Abu]RF-NH2
modifications: N-terminus assumed
SMILES: CC[C@H](NC(=O)CNC(=O)[C@H](Cc1ccccc1)NC(=O)[C@H](CO)NC(=O)[C@H](CC(N)=O)NC(=O)[C@H](Cc1c[nH]c2ccccc12)NC(=O)[C@H](CC(N)=O)NC(=O)[C@@H](N)Cc1ccc(O)cc1)C(=O)N[C@@H](CCCNC(=N)N)C(=O)N[C@@H](Cc1ccccc1)C(N)=O
On to B4, for which, in test [2], the “intracellular Ca ion level-increasing activity (FLIPR)” value is 1 specific activity to metastin (1-54). This molecule also came in with an IC50 in test [3] of 720 nM.

In turn, [dY]N[4Pal]NSF[azaGly]L[Arg(Me)]F-NH2 [Compound No. 286: [D-Tyr1,Pya(4) 3,AzaGly7,Arg(Me)9]MS10] registered an IC50 in test [3] of 17 nM. The “intracellular Ca ion level-increasing activity (FLIPR)” value in test [4] is 2 specific activity to metastin (1-54). In addition, the “cell growth inhibition activity, IC50” value in test [5] came to 18.3 nM.

Regarding [dY]NWNSFGL[Arg(Me)]F-NH2 [Compound No. 141: [D-Tyr1,Arg(Me)9]MS10], the “cell growth inhibition activity, IC50” value in test [5] came out at 87 nM.

With YNWNSXGLRF (Cha6; C-terminal amide) [Compound No. 156: [Cha6]MS10], in test [2], the “intracellular Ca ion level-increasing activity (FLIPR)” value was 2 specific activity to metastin (1-54). In test [3], this molecule had an IC50 of 49 nM.

Take YNWNSFGLR[Phe(3,4-Cl2)]-NH2 [Compound No. 199: [Phe(3,4Cl2)10]MS10]: in test [2], the “intracellular Ca ion level-increasing activity (FLIPR)” value is 3 specific activity to metastin (1-54). Moreover, in test [3], the IC50 came out at 470 nM.

As for YN[dW]NSFGL[Arg(Me)]F-NH2 [Compound No. 143: [D-Trp3,Arg(Me)9]MS10], the “intracellular Ca ion level-increasing activity (FLIPR)” value in test [2] is 3 specific activity to metastin (1-54). This molecule returned an IC50 in test [3] of 7.7 nM.

B5: Compound No. 190: [D-Tyr1,Cha3,AzaGly7,Arg(Me)9]MS10 (peptide)
peptide: [dY]N[Cha]NSF[azaGly]L[Arg(Me)]F-NH2
modifications: N-terminus assumed
SMILES: CNC(=N)NCCC[C@H](NC(=O)[C@H](CC(C)C)NC(=O)NNC(=O)[C@H](Cc1ccccc1)NC(=O)[C@H](CO)NC(=O)[C@H](CC(N)=O)NC(=O)[C@H](CC1CCCCC1)NC(=O)[C@H](CC(N)=O)NC(=O)[C@H](N)Cc1ccc(O)cc1)C(=O)N[C@@H](Cc1ccccc1)C(N)=O
On to B5, for which the “intracellular Ca ion level-increasing activity (FLIPR)” value in test [2] was 10 specific activity to metastin (1-54). The concentration for half-maximal inhibition (IC50) in test [3] was 12 nM.

Turning to YNWNSXGLRF (Nal(1)6; C-terminal amide) [Compound No. 151: [Nal(1)6]MS10], the “intracellular Ca ion level-increasing activity (FLIPR)” value in test [2] was 1 specific activity to metastin (1-54). The IC50 in test [3] amounted to 300 nM.

Take YNWNSXGLRF (Nal(2)6; C-terminal amide) [Compound No. 152: [Nal(2)6]MS10]: the “intracellular Ca ion level-increasing activity (FLIPR)” value in test [2] is 5 specific activity to metastin (1-54). This molecule also yielded a half-maximal inhibitory concentration (IC50) in test [3] of 180 nM.

For the molecule [dY][dN][4Pal]NSF[azaGly]L[Arg(Me)]F-NH2 [Compound No. 303: [D-Tyr1,D-Asn2,Pya(4) 3,AzaGly7,Arg(Me)9]MS10], the IC50 in test [3] was 0.5 nM. In addition, the “intracellular Ca ion level-increasing activity (FLIPR)” value in test [6] is 5 specific activity to metastin (1-54). Moreover, the “cell growth inhibition activity, IC50” value in test [5] is 41.2 nM.

B6: Compound No. 182: [D-Tyr1,Cha3,6,Arg(Me)9,Trp10]MS10 (peptide)
peptide: [dY]N[Cha]NS[Cha]GL[Arg(Me)]W-NH2
modifications: N-terminus assumed
SMILES: CNC(=N)NCCC[C@H](NC(=O)[C@H](CC(C)C)NC(=O)CNC(=O)[C@H](CC1CCCCC1)NC(=O)[C@H](CO)NC(=O)[C@H](CC(N)=O)NC(=O)[C@H](CC1CCCCC1)NC(=O)[C@H](CC(N)=O)NC(=O)[C@H](N)Cc1ccc(O)cc1)C(=O)N[C@@H](Cc1c[nH]c2ccccc12)C(N)=O
As to B6, in test [2], the “intracellular Ca ion level-increasing activity (FLIPR)” value is 5 specific activity to metastin (1-54). In test [3], this molecule displayed an IC50 of 98 nM.

B7: Compound No. 171: [D-Tyr1,Cha3,Arg(Me)9]MS10 (peptide)
peptide: [dY]N[Cha]NSFGL[Arg(Me)]F-NH2
modifications: N-terminus assumed
SMILES: CNC(=N)NCCC[C@H](NC(=O)[C@H](CC(C)C)NC(=O)CNC(=O)[C@H](Cc1ccccc1)NC(=O)[C@H](CO)NC(=O)[C@H](CC(N)=O)NC(=O)[C@H](CC1CCCCC1)NC(=O)[C@H](CC(N)=O)NC(=O)[C@H](N)Cc1ccc(O)cc1)C(=O)N[C@@H](Cc1ccccc1)C(N)=O
As for B7, the “intracellular Ca ion level-increasing activity (FLIPR)” value in test [2] was 10 specific activity to metastin (1-54). The IC50 in test [3] was determined as 110 nM.

On to YNWNSFGLR[Phe(4-NH2)]-NH2 [Compound No. 131: [Phe(4NH2)10]MS10], for which the “intracellular Ca ion level-increasing activity (FLIPR)” value in test [2] is 3 specific activity to metastin (1-54). Further, the IC50 in test [3] is 120 nM.

Turning to YNWNSFGLRX (Nal(1)10; C-terminal amide) [Compound No. 133: [Nal(1)10]MS10], in test [2], the “intracellular Ca ion level-increasing activity (FLIPR)” value is 3 specific activity to metastin (1-54). Moreover, in test [3], the IC50 amounted to 330 nM.

B8: Compound No. 305: des(1)-[D-Tyr2,D-Pya(4) 3,AzaGly7,Arg(Me)9]MS10 (peptide)
peptide: [dY][d4Pal]NSF[azaGly]L[Arg(Me)]F-NH2
modifications: N-terminus assumed
SMILES: CNC(=N)NCCC[C@H](NC(=O)[C@H](CC(C)C)NC(=O)NNC(=O)[C@H](Cc1ccccc1)NC(=O)[C@H](CO)NC(=O)[C@H](CC(N)=O)NC(=O)[C@@H](Cc1ccncc1)NC(=O)[C@H](N)Cc1ccc(O)cc1)C(=O)N[C@@H](Cc1ccccc1)C(N)=O
notes: also called KiSS305; KiSS1-305
In test [3], B8 yielded an IC50 of 1.3 nM. Moreover, the “intracellular Ca ion level-increasing activity (FLIPR)” value in test [6] was 5 specific activity to metastin (1-54). For the same molecule, in test [5], the “cell growth inhibition activity, IC50” value was 8.94 nM.

B9: Compound No. 322: des(1-3)-3-Pyridylpropionyl-[AzaGly7,Arg(Me)9]MS10 (peptide)
peptide: {Propanoyl(3-(3-pyridyl))}-NSF[azaGly]L[Arg(Me)]F-NH2
SMILES: CNC(=N)NCCC[C@H](NC(=O)[C@H](CC(C)C)NC(=O)NNC(=O)[C@H](Cc1ccccc1)NC(=O)[C@H](CO)NC(=O)[C@H](CC(N)=O)NC(=O)CCc1cccnc1)C(=O)N[C@@H](Cc1ccccc1)C(N)=O
notes: also called KiSS322; KiSS1-322
The molecule B9 had an IC50 in test [3] of 54 nM. For the same molecule, the “intracellular Ca ion level-increasing activity (FLIPR)” value in test [6] was 1 specific activity to metastin (1-54). Moreover, in test [5], the “cell growth inhibition activity, IC50” value amounted to 71.9 nM.

For orientation: IC50 means the concentration at which inhibition is half-maximal. A lower IC50 goes with inhibition by little substance.
